In the experiment the target is T1, hen egg white lysozyme (hen, UniProt P00698 19-147).
T1 construct: also called HEL; hen-egg lysozyme
The experiment is described as follows: affinity measurements by microfluidic screening.

T1 sequence (P00698 19-147 limits assumed): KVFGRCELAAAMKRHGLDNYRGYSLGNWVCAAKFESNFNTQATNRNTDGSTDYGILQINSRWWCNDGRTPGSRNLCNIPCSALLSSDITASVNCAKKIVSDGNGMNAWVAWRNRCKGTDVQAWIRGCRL

B1: Mm20 mouse anti-hen egg lysozyme antibody (antibody, V domains shown)
VH: QVQLQQSGPELMKPGASVKISCKATGYTFRNYWIEWIKQRPGHGLEWIGEILPESGSINYNEKFKGKATFTADTSSNTAYLQLRSLTSEDSAVYYCFYDNYVFDYWGQGTTL
VL: QIVLIQSPTIMSASPGEKVTMTCSANSSFSYMHWYQQKSGTSPKRWIYDTSKLASGVPARFSGSGSGTSYSLTISSMEAEDAATYYCQQWSRNPTFGAGTKL
On to B1, for which the binding result is “binds”.

The values are drawn from patent US20160252495A1 (UNIVERSITY OF BRITISH COLUMBIA, published 2016).
